The text below walks through data of patent US20090158448A1 (NATIONAL UNIVERSITY CORPORATION TOKYO MEDICAL AND DENTAL …, published 2009).

Experiment in all cases: co-immunoprecipitation (anti-myc) and western, 293T cells
Assay [1] deals with T1, mutant MuSK (YF), myc tag (mouse, UniProt Q61006 22-868, limits assumed).
T1 construct: Mutation in the NPXY PTB domain target motif; also called YF mutant; not shown: myc tag
T1 sequence: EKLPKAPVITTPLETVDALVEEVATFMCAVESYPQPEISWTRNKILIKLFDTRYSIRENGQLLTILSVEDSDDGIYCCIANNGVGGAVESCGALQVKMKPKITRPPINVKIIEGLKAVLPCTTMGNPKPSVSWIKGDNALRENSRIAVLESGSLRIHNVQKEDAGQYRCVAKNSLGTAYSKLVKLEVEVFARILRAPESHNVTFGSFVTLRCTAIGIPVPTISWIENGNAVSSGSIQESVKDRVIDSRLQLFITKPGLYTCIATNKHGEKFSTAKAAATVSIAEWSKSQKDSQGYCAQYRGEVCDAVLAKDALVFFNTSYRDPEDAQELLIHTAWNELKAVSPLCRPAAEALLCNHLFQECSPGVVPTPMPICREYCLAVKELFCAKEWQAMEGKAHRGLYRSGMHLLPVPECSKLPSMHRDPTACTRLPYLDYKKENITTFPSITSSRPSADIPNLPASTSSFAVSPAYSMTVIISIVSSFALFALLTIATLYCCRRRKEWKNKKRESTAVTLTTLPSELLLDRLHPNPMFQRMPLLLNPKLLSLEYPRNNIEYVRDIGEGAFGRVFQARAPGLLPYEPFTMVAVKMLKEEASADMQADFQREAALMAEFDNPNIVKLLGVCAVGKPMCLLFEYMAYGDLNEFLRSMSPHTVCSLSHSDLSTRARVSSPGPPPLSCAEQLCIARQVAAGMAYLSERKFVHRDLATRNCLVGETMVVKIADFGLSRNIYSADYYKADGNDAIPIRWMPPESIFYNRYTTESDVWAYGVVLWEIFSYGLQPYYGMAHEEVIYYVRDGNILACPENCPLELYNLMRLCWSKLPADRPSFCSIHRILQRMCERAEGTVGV
As for the experimental part: (§1) Immunoprecipitation of whole cell lysate (WCL) obtained from each transformed cell strain was carried out using an anti-myc tag antibody, and thus an immunoprecipitate (IP: αmyc) was obtained. Then, a western blot analysis was performed for the whole cell lysate and immunoprecipitate. The antibodies used were the same as the antibodies described above.
(§2) Then, immunoprecipitation of whole cell lysate (WCL) obtained from each transformed cell strain was carried out, and a western analysis was performed on the resulting immunoprecipitate (IP: αmyc). The antibodies used were the same as the antibodies described above.

Assay [2] has as its target T2, mutant MuSK (NA), myc tag (mouse, UniProt Q61006 22-868, limits assumed).
T2 construct: Mutation in the NPXY PTB domain target motif; also called NA mutant; not shown: myc tag
T2 sequence: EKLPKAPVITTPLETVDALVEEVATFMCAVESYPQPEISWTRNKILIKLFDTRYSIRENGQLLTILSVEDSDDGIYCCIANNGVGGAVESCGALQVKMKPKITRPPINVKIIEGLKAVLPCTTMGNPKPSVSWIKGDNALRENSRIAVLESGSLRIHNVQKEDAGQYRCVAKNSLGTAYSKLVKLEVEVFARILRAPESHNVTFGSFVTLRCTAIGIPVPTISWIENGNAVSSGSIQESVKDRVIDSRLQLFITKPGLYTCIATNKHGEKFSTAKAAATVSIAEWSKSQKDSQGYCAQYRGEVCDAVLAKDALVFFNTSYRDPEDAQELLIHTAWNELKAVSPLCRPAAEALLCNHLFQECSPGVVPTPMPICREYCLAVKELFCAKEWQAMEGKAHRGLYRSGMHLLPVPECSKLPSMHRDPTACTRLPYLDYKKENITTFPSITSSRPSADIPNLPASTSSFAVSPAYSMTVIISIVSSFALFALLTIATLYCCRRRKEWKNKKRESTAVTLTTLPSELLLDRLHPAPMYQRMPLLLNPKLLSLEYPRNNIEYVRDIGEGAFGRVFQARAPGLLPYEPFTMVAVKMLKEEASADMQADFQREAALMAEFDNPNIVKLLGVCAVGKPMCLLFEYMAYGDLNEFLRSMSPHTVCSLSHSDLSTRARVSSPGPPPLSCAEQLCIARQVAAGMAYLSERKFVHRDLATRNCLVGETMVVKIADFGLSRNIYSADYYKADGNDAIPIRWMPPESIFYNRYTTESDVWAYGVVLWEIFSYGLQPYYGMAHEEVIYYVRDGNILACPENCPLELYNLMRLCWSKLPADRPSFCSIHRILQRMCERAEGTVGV
As for the experimental part:
as §1, §2

The target of assay [3] is T3, wild type (WT) mouse MuSK fused to myc tag (mouse, UniProt Q61006 22-868, limits assumed).
T3 construct: also called wild type MuSK (WT); muscle-specific tyrosine kinase; not shown: myc tag
T3 sequence: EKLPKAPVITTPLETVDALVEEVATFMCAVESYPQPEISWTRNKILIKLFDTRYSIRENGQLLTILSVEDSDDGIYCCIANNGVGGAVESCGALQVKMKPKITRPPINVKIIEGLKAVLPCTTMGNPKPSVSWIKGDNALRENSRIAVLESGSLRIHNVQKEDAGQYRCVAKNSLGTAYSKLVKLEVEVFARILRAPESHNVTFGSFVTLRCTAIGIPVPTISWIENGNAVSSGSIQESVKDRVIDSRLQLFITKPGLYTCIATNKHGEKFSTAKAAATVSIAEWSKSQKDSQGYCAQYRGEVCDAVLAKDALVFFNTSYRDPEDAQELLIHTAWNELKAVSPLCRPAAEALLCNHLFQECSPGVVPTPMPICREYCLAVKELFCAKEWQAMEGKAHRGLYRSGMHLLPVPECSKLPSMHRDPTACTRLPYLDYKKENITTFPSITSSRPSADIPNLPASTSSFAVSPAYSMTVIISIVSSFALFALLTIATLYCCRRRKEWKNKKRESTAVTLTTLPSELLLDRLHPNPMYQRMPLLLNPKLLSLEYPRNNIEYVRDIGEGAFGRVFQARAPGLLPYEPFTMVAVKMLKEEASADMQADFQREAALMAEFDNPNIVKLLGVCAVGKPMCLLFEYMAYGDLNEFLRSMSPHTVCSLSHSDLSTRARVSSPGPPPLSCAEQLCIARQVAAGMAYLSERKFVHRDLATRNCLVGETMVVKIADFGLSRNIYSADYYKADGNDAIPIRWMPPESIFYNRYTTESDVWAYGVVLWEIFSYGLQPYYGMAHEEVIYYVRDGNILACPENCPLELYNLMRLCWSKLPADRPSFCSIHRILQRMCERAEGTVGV
On the procedure: as §1, §2

B1: wild type human Dok-7 protein (other)
chain: MTEAALVEGQVKLRDGKKWKSRWLVLRKPSPVADCLLMLVYKDKSERIKGLRERSSLTLEDICGLEPGLPYEGLVHTLAIVCLSQAIMLGFDSHEAMCAWDARIRYALGEVHRFHVTVAPGTKLESGPATLHLCNDVLVLARDIPPAVTGQWKLSDLRRYGAVPSGFIFEGGTRCGYWAGVFFLSSAEGEQISFLFDCIVRGISPTKGPFGLRPVLPDPSPPGPSTVEERVAQEALETLQLEKRLSLLSHAGRPGSGGDDRSLSSSSSEASHLDVSASSRLTAWPEQSSSSASTSQEGPRPAAAQAAGEAMVGASRPPPKPLRPRQLQEVGRQSSSDSGIATGSHSSYSSSLSSYAGSSLDVWRATDELGSLLSLPAAGAPEPSLCTCLPGTVEYQVPTSLRAHYDTPRSLCLAPRDHSPPSQGSPGNSAARDSGGQTSAGCPSGWLGTRRRGLVMEAPQGSEATLPGPAPGEPWEAGGPHAGPPPAFFSACPVCGGLKVNPPP
notes: also called WT; polypeptide of the present invention
Consider B1, for which the binding result in assay [1] and in assay [2] was “no binding” in each case.

B2: mutant Dok-7 (RA) (other)
chain: MTEAALVEGQVKLRDGKKWKSRWLVLRKPSPVADCLLMLVYKDKSERIKGLRERSSLTLEDICGLEPGLPYEGLVHTLAIVCLSQAIMLGFDSHEAMCAWDARIRYALGEVHRFHVTVAPGTKLESGPATLHLCNDVLVLARDIPPAVTGQWKLSDLAAYGAVPSGFIFEGGTACGYWAGVFFLSSAEGEQISFLFDCIVRGISPTKGPFGLRPVLPDPSPPGPSTVEERVAQEALETLQLEKRLSLLSHAGRPGSGGDDRSLSSSSSEASHLDVSASSRLTAWPEQSSSSASTSQEGPRPAAAQAAGEAMVGASRPPPKPLRPRQLQEVGRQSSSDSGIATGSHSSYSSSLSSYAGSSLDVWRATDELGSLLSLPAAGAPEPSLCTCLPGTVEYQVPTSLRAHYDTPRSLCLAPRDHSPPSQGSPGNSAARDSGGQTSAGCPSGWLGTRRRGLVMEAPQGSEATLPGPAPGEPWEAGGPHAGPPPAFFSACPVCGGLKVNPPP
notes: also called RA of Dok-7
Turning to B2, the binding result in assay [3] is “no binding”.
